Results on 14 molecules are retold here after US20100260668A1 (published 2010).

The assay concerns the target T1, DLL4 ECD His tag (UniProt Q9NR61 27-529, limits assumed).
T1 construct: extracellular domain; also called DLL ECD His tag
As to the kind of experiment: SPR (Biacore), DVD-Ig captured, DLL4 as analyte. For orientation: Surface plasmon resonance follows binding to a sensor surface in real time, without labels.

B1: DVD450 (bispecific antibody, human IgG1, kappa)
heavy: not shown
light: DIQMTQSPSSLSASVGDRVTITCRASQDVSTAVAWYQQKPGKAPKLLIYSASFLYSGVPSRFSGSGSGTDFTLTISSLQPEDFATYYCQQSYTTPPTFGQGTKVEIKRTVAAPSVFIFPPDIVMTQSPDSLAVSLGERATISCRASESVDNYGISFMKWFQQKPGQPPKLLIYAASNQGSGVPDRFSGSGSGTDFTLTISSLQAEDVAVYYCQQSKEVPWTFGGGTKVEIKRTVAAPSVFIFPPSDEQLKSGTASVVCLLNNFYPREAKVQWKVDNALQSGNSQESVTEQDSKDSTYSLSSTLTLSKADYEKHKVYACEVTHQGLSSPVTKSFNRGEC
notes: HC linker long, LC linker long; also called DVD-Ig DVD450
One may read the Kd as the concentration at which binding is half-saturated. A low value points to tighter binding. For orientation: koff means the rate constant with which the complex falls apart. In general, kon refers to a measure of how fast the partners come together. Low values mean slow association, high ones fast association. The molecule B1 displayed a Kd of 7.41 nM, a koff of 0.000251 s⁻¹ and an on-rate constant (kon) of 33800 M⁻¹ s⁻¹.

B2: DVD462 (bispecific antibody, human IgG1, kappa)
heavy: not shown
light: B1 light
notes: HC linker short, LC linker long; also called DVD-Ig DVD462
On to B2, for which binding was characterised by a dissociation constant (Kd) of 2.98 nM, the dissociation rate constant (koff) came out at 0.00025 s⁻¹ and the on-rate (kon) was 83900 M⁻¹ s⁻¹.

B3: DVD466 (bispecific antibody, human IgG1, kappa)
heavy: not shown
light: DIQMTQSPSSLSASVGDRVTITCRASQDVSTAVAWYQQKPGKAPKLLIYSASFLYSGVPSRFSGSGSGTDFTLTISSLQPEDFATYYCQQSYTTPPTFGQGTKVEIKRTVAAPDIQMTQSPSSLSASVGDRVTITCRASQDVSTAVAWYQQKPGKAPKLLIYSASFLYSGVPSRFSGSGSGTDFTLTISSLQPEDFATTYYCQQSYTGTVTFGQGTKVEIKRTVAAPSVFIFPPSDEQLKSGTASVVCLLNNFYPREAKVQWKVDNALQSGNSQESVTEQDSKDSTYSLSSTLTLSKADYEKHKVYACEVTHQGLSSPVTKSFNRGEC
notes: HC linker short, LC linker short; also called DVD-Ig DVD466
In turn, B3 gave a Kd of 1.25 nM, a dissociation rate constant (koff) of 0.000139 s⁻¹ and an association rate constant (kon) of 111000 M⁻¹ s⁻¹.

B4: DVD478 (bispecific antibody, human IgG1, kappa)
heavy: not shown
light: B3 light
notes: HC linker long, LC linker short; also called DVD-Ig DVD478
As to B4, binding was put at a Kd of 2.22 nM, the koff stood at 0.000167 s⁻¹ and the on-rate constant (kon) worked out at 75200 M⁻¹ s⁻¹.

B5: DVD514 (bispecific antibody, human IgG1, lambda)
heavy: not shown
light: DIQMTQSPSSLSASVGDRVTITCRASQDVSTAVAWYQQKPGKAPKLLIYSASFLYSGVPSRFSGSGSGTDFTLTISSLQPEDFATYYCQQSYTTPPTFGQGTKVEIKRTVAAPQAVVTQESALTTSPGETVTLTCRSSTGAVTTSNYANWVQEKPDHLFTGLIGGTNNRAPGVPARFSGSLIGDKAALTITGAQTEDEAIYFCALWYSNHWVFGGGTKLTVLGQPKAAPSVTLFPPSSEELQANKATLVCLISDFYPGAVTVAWKADSSPVKAGVETTTPSKQSNNKYAASSYLSLTPEQWKSHRSYSCQVTHEGSTVEKTVAPTECS
notes: HC linker short, LC linker short; also called DVD-Ig DVD514
For B5, the Kd is 3.48 nM, the koff came out at 0.000432 s⁻¹ and the on-rate (kon) is 124000 M⁻¹ s⁻¹.

B6: DVD526 (bispecific antibody, human IgG1, lambda)
heavy: not shown
light: B5 light
notes: HC linker long, LC linker short; also called DVD-Ig DVD526
With B6, the Kd was determined as 5.55 nM, the off-rate constant (koff) came to 0.000629 s⁻¹ and the on-rate constant (kon) was 113000 M⁻¹ s⁻¹.

B7: DVD520 (bispecific antibody, human IgG1, kappa, lambda)
heavy: not shown
light: DIQMTQSPSSLSASVGDRVTITCRASQDVSTAVAWYQQKPGKAPKLLIYSASFLYSGVPSRFSGSGSGTDFTLTISSLQPEDFATYYCQQSYTTPPTFGQGTKVEIKRTVAAPSVFIFPPQAVVTQESALTTSPGETVTLTCRSSTGAVTTSNYANWVQEKPDHLFTGLIGGTNNRAPGVPARFSGSLIGDKAALTITGAQTEDEAIYFCALWYSNHWVFGGGTKLTVLGQPKAAPSVTLFPPSSEELQANKATLVCLISDFYPGAVTVAWKADSSPVKAGVETTTPSKQSNNKYAASSYLSLTPEQWKSHRSYSCQVTHEGSTVEKTVAPTECS
notes: HC linker long, LC linker long; also called DVD-Ig DVD520
As to B7, binding was put at a Kd of 3.3 nM, the koff worked out at 0.000408 s⁻¹ and the kon came to 124000 M⁻¹ s⁻¹.

B8: DVD472 (bispecific antibody, human IgG1, kappa)
heavy: not shown
light: DIQMTQSPSSLSASVGDRVTITCRASQDVSTAVAWYQQKPGKAPKLLIYSASFLYSGVPSRFSGSGSGTDFTLTISSLQPEDFATYYCQQSYTTPPTFGQGTKVEIKRTVAAPSVFIFPPDIQMTQSPSSLSASVGDRVTITCRASQDVSTAVAWYQQKPGKAPKLLIYSASFLYSGVPSRFSGSGSGTDFTLTISSLQPEDFATTYYCQQSYTGTVTFGQGTKVEIKRTVAAPSVFIFPPSDEQLKSGTASVVCLLNNFYPREAKVQWKVDNALQSGNSQESVTEQDSKDSTYSLSSTLTLSKADYEKHKVYACEVTHQGLSSPVTKSFNRGEC
notes: HC linker long, LC linker long; also called DVD-Ig DVD472
B8: the dissociation constant Kd came to 0.881 nM, the off-rate (koff) was 8.64e-05 s⁻¹ and the kon is 98000 M⁻¹ s⁻¹.

B9: DVD484 (bispecific antibody, human IgG1, kappa)
heavy: not shown
light: B8 light
notes: HC linker short, LC linker long; also called DVD-Ig DVD484
B9: binding was put at a Kd of 2.96 nM, the koff is 0.000295 s⁻¹ and the kon was 99700 M⁻¹ s⁻¹.

B10: DVD444 (bispecific antibody, human IgG1, kappa)
heavy: not shown
light: DIQMTQSPSSLSASVGDRVTITCRASQDVSTAVAWYQQKPGKAPKLLIYSASFLYSGVPSRFSGSGSGTDFTLTISSLQPEDFATYYCQQSYTTPPTFGQGTKVEIKRTVAAPDIVMTQSPDSLAVSLGERATISCRASESVDNYGISFMKWFQQKPGQPPKLLIYAASNQGSGVPDRFSGSGSGTDFTLTISSLQAEDVAVYYCQQSKEVPWTFGGGTKVEIKRTVAAPSVFIFPPSDEQLKSGTASVVCLLNNFYPREAKVQWKVDNALQSGNSQESVTEQDSKDSTYSLSSTLTLSKADYEKHKVYACEVTHQGLSSPVTKSFNRGEC
notes: HC linker short, LC linker short; also called DVD-Ig DVD444
In turn, B10 had a Kd of 2.37 nM, a koff of 0.00034 s⁻¹ and an association rate constant (kon) of 143000 M⁻¹ s⁻¹.

B11: DVD456 (bispecific antibody, human IgG1, kappa)
heavy: not shown
light: B10 light
notes: HC linker long, LC linker short; also called DVD-Ig DVD456
Molecule B11 gave a dissociation constant Kd of 1.66 nM, a koff of 0.000174 s⁻¹ and a kon of 104000 M⁻¹ s⁻¹.

B12: DVD501 (bispecific antibody, human IgG1, kappa)
heavy: not shown
light: DIQMTQSSSYLSVSLGGRVTITCKASDHINNWLAWYQQKPGNAPRLLISGATSLETGVPSRFSGSGSGKDYTLSITSLQTEDVATYYCQQYWSIPLTFGAGTKLELKRTVAAPDIQMTQSPSSLSASVGDRVTITCRASQDVSTAVAWYQQKPGKAPKLLIYSASFLYSGVPSRFSGSGSGTDFTLTISSLQPEDFATYYCQQSYTTPPTFGQGTKVEIKRTVAAPSVFIFPPSDEQLKSGTASVVCLLNNFYPREAKVQWKVDNALQSGNSQESVTEQDSKDSTYSLSSTLTLSKADYEKHKVYACEVTHQGLSSPVTKSFNRGEC
notes: HC linker long, LC linker short; also called DVD-Ig DVD501
As for B12, the affinity, expressed as Kd, was 0.302 nM; the off-rate (koff) was found to be 8.14e-05 s⁻¹; the kon amounted to 270000 M⁻¹ s⁻¹.

B13: DVD495 (bispecific antibody, human IgG1, kappa)
heavy: not shown
light: DIQMTQSSSYLSVSLGGRVTITCKASDHINNWLAWYQQKPGNAPRLLISGATSLETGVPSRFSGSGSGKDYTLSITSLQTEDVATYYCQQYWSIPLTFGAGTKLELKRTVAAPSVFIFPPDIQMTQSPSSLSASVGDRVTITCRASQDVSTAVAWYQQKPGKAPKLLIYSASFLYSGVPSRFSGSGSGTDFTLTISSLQPEDFATYYCQQSYTTPPTFGQGTKVEIKRTVAAPSVFIFPPSDEQLKSGTASVVCLLNNFYPREAKVQWKVDNALQSGNSQESVTEQDSKDSTYSLSSTLTLSKADYEKHKVYACEVTHQGLSSPVTKSFNRGEC
notes: HC linker long, LC linker long; also called DVD-Ig DVD495
For B13, the dissociation constant Kd was determined as 0.263 nM, the koff stood at 7.91e-05 s⁻¹ and the association rate constant (kon) worked out at 301000 M⁻¹ s⁻¹.

B14: DVD507 (bispecific antibody, human IgG1, kappa, L234A L235A)
heavy: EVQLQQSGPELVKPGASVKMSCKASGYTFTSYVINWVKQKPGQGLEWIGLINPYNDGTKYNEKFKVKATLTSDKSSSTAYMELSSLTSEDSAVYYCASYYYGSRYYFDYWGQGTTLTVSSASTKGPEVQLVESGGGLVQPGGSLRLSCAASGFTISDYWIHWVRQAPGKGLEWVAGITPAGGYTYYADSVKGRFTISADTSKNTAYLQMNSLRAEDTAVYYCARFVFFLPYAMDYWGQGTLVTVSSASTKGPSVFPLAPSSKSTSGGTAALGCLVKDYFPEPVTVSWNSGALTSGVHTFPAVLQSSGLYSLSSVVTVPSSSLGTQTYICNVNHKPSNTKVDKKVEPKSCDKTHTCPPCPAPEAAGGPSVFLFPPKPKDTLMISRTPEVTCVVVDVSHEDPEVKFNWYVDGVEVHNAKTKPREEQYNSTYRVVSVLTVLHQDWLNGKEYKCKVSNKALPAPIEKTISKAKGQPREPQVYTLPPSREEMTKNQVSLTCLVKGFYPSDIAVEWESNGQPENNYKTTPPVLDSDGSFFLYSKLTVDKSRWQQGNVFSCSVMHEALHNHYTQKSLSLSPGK
light: B13 light
notes: HC linker short, LC linker long; also called DVD-Ig DVD507
B14: the Kd was 0.265 nM, the off-rate (koff) turned out to be 7.16e-05 s⁻¹ and the on-rate (kon) came out at 270000 M⁻¹ s⁻¹.
